Measured values as given in publication PMC2800238.

B1: SAV557R/SAV481R primer-template duplex (dsRNA)
RNA 1: GCUAUGUGAGAUUAAGUUAU
RNA 2: UUUUUUUUUUAUAACUUAAUCUCACAUAGC

Molecular target: nsp12 (RdRp) (SARS-CoV Frankfurt-1, UniProt P0C6X7 4370-5301)
Experiment: EMSA

Binder	Kd [nM]
B1	130
GCUAUGUGAGAUUAAGUUAU (ssRNA) [SAV557R ssRNA]	100
